The text below walks through data of publication PMC5511352, “Structural insights into the mycobacteria transcription initiation complex from analysis of X-ray crystal structures”.

This series addresses T1, RNAP alpha subunit C-terminal domain (alphaCTD, symmetry-related) (Mycobacterium smegmatis (mc2155), UniProt A0QSL8 251-350).
T1 sequence: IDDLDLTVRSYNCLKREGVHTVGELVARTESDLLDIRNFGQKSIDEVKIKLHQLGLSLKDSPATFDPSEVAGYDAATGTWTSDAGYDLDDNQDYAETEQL
Put plainly: X-ray crystallography (2.76 A); alphaCTD of symmetry-related complex; A/T-rich region -29 to -24; Crystallization: 0.1 M Bis-Tris pH 6.0, 0.2 M Li2SO4 (printed LiSO4), 16% PEG 3350, 2.5% ethylene glycol, 22 C; protein in 20 mM Tris-HCl pH 8, 100 mM K-glutamate, 10 mM MgCl2, 1 mM DTT. As to conditions: protein: native; upstream fork (ds/ss junction).

B1: us-fork promoter fragment (mixed)
DNA 1: GCTTGACAAAAGTGTTAAATTGTGCTATACT
DNA 2: AGCACAATTTAACACTTTTGTCAAGC
B1: the binding result was “binds”.
